Measured values: paper PMC9197078, “The small nonstructural protein NP1 of human bocavirus 1 directly interacts with Ku70 and RPA70 and facilitates viral DNA replication” (PLoS Pathogens, 2022)

B1: glutathione S-transferase (GST)-tagged HBoV1 NP1 (GST-NP1) (natural protein)
chain: MSSGNMKDKHRSYKRKGSPERGERKRHWQTTHHRSRSRSPIRHSGERGSGSYHQEHPISHLSSCTASKTSDQVMKTRESTSGKKDNRTNPYTVFSQHRASNPEAPGWCGFYWHSTRIARDGTNSIFNEMKQQFQQLQIDNKIGWDNTRELLFNQKKTLDQKYRNMFWHFRNNSDCERCNYWDDVYRRHLANVSSQTEADEITDEEMLSAAESMEADASN
notes: also called pGST-NP1; source: E. coli BL21/DE3 pLysS, purified

Tests used:
Assay in all cases: BLI; BLItz; His-tagged protein at different concentrations mounted on Ni-NTA biosensors, dipped into 4 μM GST-NP1 or control GST^Flag; Kinetic buffer 50 mM Tris-HCl pH 7.4, 150 mM NaCl
Conditions in all cases: both partners purified
[1] = target: T1, hexahistidine (His)-tagged Ku70 (Ku70^His) (UniProt P12956 1-609)
T1 construct: also called full length Ku70; Ku70 monomer; source: E. coli BL21/DE3 pLysS, purified
T1 sequence (P12956 whole entry): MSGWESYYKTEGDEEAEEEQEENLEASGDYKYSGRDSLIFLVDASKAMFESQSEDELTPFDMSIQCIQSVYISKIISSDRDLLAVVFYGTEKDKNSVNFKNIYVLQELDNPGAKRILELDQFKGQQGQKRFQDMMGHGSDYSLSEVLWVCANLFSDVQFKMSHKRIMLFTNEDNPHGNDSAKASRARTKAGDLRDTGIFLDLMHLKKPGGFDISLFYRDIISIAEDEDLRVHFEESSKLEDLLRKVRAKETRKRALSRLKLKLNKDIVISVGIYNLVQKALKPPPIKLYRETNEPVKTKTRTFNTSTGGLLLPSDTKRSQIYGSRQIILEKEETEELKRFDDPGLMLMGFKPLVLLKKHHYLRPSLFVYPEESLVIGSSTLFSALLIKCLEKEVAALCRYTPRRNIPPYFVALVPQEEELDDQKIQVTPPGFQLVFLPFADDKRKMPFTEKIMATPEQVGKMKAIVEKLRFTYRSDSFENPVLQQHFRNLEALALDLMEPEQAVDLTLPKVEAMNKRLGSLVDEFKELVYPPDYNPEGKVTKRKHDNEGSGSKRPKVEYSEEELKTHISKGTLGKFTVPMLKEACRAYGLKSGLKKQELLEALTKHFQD

[2] = target: T2, RPA70-AB^His (aa181-422) (UniProt P27694 181-422)
T2 construct: also called middle AB domain; source: E. coli BL21/DE3 pLysS, purified
T2 sequence (P27694 181-422): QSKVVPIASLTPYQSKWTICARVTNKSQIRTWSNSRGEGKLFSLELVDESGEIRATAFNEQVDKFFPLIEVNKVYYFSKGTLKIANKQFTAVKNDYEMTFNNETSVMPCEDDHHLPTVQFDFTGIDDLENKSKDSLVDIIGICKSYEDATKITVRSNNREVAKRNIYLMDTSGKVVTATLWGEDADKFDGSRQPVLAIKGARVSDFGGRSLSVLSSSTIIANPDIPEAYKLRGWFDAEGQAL

[3] = target: T3, RPA70^His (UniProt P27694 1-616)
T3 construct: source: E. coli BL21/DE3 pLysS, purified
T3 sequence (P27694 whole entry): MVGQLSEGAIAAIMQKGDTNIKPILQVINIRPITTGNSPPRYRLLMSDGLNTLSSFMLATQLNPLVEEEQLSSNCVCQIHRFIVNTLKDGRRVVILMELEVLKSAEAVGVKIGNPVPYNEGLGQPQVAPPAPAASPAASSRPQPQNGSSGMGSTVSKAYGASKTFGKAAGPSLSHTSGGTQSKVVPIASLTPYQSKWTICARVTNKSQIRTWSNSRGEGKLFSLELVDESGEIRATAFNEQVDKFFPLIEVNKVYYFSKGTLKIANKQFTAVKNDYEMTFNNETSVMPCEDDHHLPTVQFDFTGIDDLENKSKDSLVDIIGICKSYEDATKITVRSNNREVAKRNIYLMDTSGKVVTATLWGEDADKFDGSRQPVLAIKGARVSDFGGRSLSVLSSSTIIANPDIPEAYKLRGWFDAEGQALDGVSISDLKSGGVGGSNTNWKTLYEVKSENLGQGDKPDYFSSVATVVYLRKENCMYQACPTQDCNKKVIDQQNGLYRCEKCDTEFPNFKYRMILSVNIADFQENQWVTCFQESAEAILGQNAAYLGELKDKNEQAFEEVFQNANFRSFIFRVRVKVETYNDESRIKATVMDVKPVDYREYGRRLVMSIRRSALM

[4] = target: B1

Binder	Kd [1]	Kd [2]	Kd [3]	Kd [4]
B1	0.095 µM	0.526 µM	0.122 µM	–
MBP-Ku70-β-barrel^His (aa266-439) (domain or fragment, UniProt P12956 266-439, looked up, also called MBP-β-barrel^His; Ku70 β-barrel domain; source: E. coli BL21/DE3 pLysS, purified) DIVISVGIYNLVQKALKPPPIKLYRETNEPVKTKTRTFNTSTGGLLLPSDTKRSQIYGSRQIILEKEETEELKRFDDPGLMLMGFKPLVLLKKHHYLRPSLFVYPEESLVIGSSTLFSALLIKCLEKEVAALCRYTPRRNIPPYFVALVPQEEELDDQKIQVTPPGFQLVFLPF	–	–	–	0.722 µM
